In patent US20240034774A1 (Gilead, published 2024):
Substitutions are numbered along the chain they refer to.

B1: 1.31.35-1 (antibody, human IgG1, kappa, V domains shown)
VH: QVQLVQSGAEVTKPGASVRVSCEASGYNIRDYFIHWWRQAPGQGLQWVGWINPKTGQPNNPRQFQGRVSLTRHASWDFDTFSFYMDLKALRSDDTATYFCARQRSDYWDFDVWGSGTQVTVSS
VL: DIQMTQSPSSLSASVGDRVTITCQANGYLNWYQQKPGKAPKLLIYDGSNLETGVPSRFSGSRWGQEYTLTISSLQPEDIATYFCQVYEFVGPGTNLDIKR
B2: 1.32.35-1 (antibody, human IgG1, kappa, V domains shown)
VH: B1 VH with T97V, S105T
VL: B1 VL
B3: 1.35.35-1 (antibody, human IgG1, kappa, V domains shown)
VH: B1 VH with T12K, E23K, I34M, S69T, L70M, K88S, A89R, S105T, S115Q, Q118M
VL: B1 VL
B4: 1.34.35-1 (antibody, human IgG1, kappa, V domains shown)
VH: B1 VH with T12K, E23K, S69T, T97V, S105T
VL: B1 VL
B5: 1.36.35-1 (antibody, human IgG1, kappa, V domains shown)
VH: QVQLVQSGAEVKKPGASVRVSCKASGYNIRDYFMHWWRQAPGQGLQWVGWINPKTGQPNNPRQFQGRVTMTRHASWDFDTFSAYMDLSRLRSDDTATYFCARQRTDYWDFDVWGQGTMVTVSS
VL: B1 VL
B6: 1.33.35-1 (antibody, human IgG1, kappa, V domains shown)
VH: B1 VH with T12K, E23K, S69T
VL: B1 VL
B7: 1.34.33-1 (antibody, human IgG1, kappa)
heavy: QVQLVQSGAEVKKPGASVRVSCKASGYNIRDYFIHWWRQAPGQGLQWVGWINPKTGQPNNPRQFQGRVTLTRHASWDFDTFSFYMDLKALRSDDTAVYFCARQRTDYWDFDVWGSGTQVTVSSASTKGPSVFPLAPSSKSTSGGTAALGCLVKDYFPEPVTVSWNSGALTSGVHTFPAVLQSSGLYSLSSVVTVPSSSLGTQTYICNVNHKPSNTKVDKKVEPKSCDKTHTCPPCPAPELLAGPDVFLFPPKPKDTLMISRTPEVTCVVVDVSHEDPEVKFNWYVDGVEVHNAKTKPREEQYNSTYRVVSVLTVLHQDWLNGKEYKCKVSNKALPLPEEKTISKAKGQPREPQVYTLPPSREEMTKNQVSLTCLVKGFYPSDIAVEWESNGQPENNYKTTPPVLDSDGSFFLYSKLTVDKSRWQQGNVFSCSVLHEALHSHYTQKSLSLSPGK
light: DIQMTQSPSSLSASVGDTVTITCQANGYLNWYQQRRGKAPKLLIYDGSNLERGVPSRFSGRRWGQEYTLTISSLQPEDIATYFCQVYEFVVPGTNLDIKRTVAAPSVFIFPPSDEQLKSGTASVVCLLNNFYPREAKVQWKVDNALQSGNSQESVTEQDSKDSTYSLSSTLTLSKADYEKHKVYACEVTHQGLSSPVTKSFNRGEC
B8: 1.35.31-1 (antibody, human IgG1, kappa)
heavy: B7 heavy with I34M, L70M, K88S, A89R, V97T, S115Q, Q118M
light: B7 light with N49K, I98L
B9: 1.22.1-1 (antibody, human IgG1, kappa)
heavy: QVQLLQSGAAVTKPGASVRVSCEASGYNIRDYFIHWWRQAPGQGLQWVGWINPKTGQPNNPRQFQGRVSLTRHASTFSFYMDLKALRSDDTAVYFCARQRSDYWDFDVWGSGTQVTVSSASTKGPSVFPLAPSSKSTSGGTAALGCLVKDYFPEPVTVSWNSGALTSGVHTFPAVLQSSGLYSLSSVVTVPSSSLGTQTYICNVNHKPSNTKVDKKVEPKSCDKTHTCPPCPAPELLAGPDVFLFPPKPKDTLMISRTPEVTCVVVDVSHEDPEVKFNWYVDGVEVHNAKTKPREEQYNSTYRVVSVLTVLHQDWLNGKEYKCKVSNKALPLPEEKTISKAKGQPREPQVYTLPPSREEMTKNQVSLTCLVKGFYPSDIAVEWESNGQPENNYKTTPPVLDSDGSFFLYSKLTVDKSRWQQGNVFSCSVLHEALHSHYTQKSLSLSPGK
light: B7 light with N49K, T68N, S72N, S73N, N95R, I98L
B10: 1.35.34-1 (antibody, human IgG1, kappa)
heavy: B7 heavy with I34M, L70M, K88S, A89R, V97T, S115Q, Q118M
light: B7 light with V91T, N95R
B11: 1.35.33-1 (antibody, human IgG1, kappa)
heavy: B7 heavy with I34M, L70M, K88S, A89R, V97T, S115Q, Q118M
light: B7 light
B12: 1.36.32-1 (antibody, human IgG1, kappa)
heavy: B7 heavy with I34M, L70M, F83A, K88S, A89R, V97T, S115Q, Q118M
light: B7 light with N49K, V91T, N95R, I98L
B13: 1.35.32-1 (antibody, human IgG1, kappa)
heavy: B7 heavy with I34M, L70M, K88S, A89R, V97T, S115Q, Q118M
light: B7 light with N49K, V91T, N95R, I98L
B14: 1.36.34-1 (antibody, human IgG1, kappa)
heavy: B7 heavy with I34M, L70M, F83A, K88S, A89R, V97T, S115Q, Q118M
light: B7 light with V91T, N95R
B15: 1.2.2-1 (antibody, human IgG1)
heavy: B7 heavy with V5L, K23E, T69S, T105S, Q118M
VL: DIQMTQSPSSLSASVGDTVTITCQANGYLNWYQQKPGKAPKLLIYDGSKLERGVPSRFSGRRWGQEYNLTINNLQPEDIATYFCQVYEFVVPGTKVDIK
B16: 1.35.1-1 (antibody, human IgG1, kappa)
heavy: B7 heavy with I34M, L70M, K88S, A89R, V97T, S115Q, Q118M
light: B7 light with N49K, T68N, S72N, S73N, N95R, I98L
B17: 1.34.34-1 (antibody, human IgG1, kappa)
heavy: B7 heavy
light: B7 light with V91T, N95R
B18: 1v2-1 (antibody, human IgG1, kappa)
heavy: B7 heavy with V5L, E10A, K12T, K23E, T69S, F81Y, T105S
light: B7 light with N49K, T68N, S72N, S73N, N95R, I98L
B19: 1.1.2-1 (antibody, human IgG1)
heavy: B7 heavy with V5L, E10A, K12T, K23E, T69S, T105S
VL: B15 VL

What was measured:
BSA = BSA (UniProt P02769 25-607); test: single-point ELISA, BSA control
gp120 SHIV SF162 P3 = gp120 SHIV SF162 P3 (SHIV SF162 P3); test: single-point ELISA at EC50 conc. of A-1
gp120 Bal = gp120 Bal (HIV (Bal)); test: single-point ELISA at EC50 conc. of A-1
gp120 CAAN = gp120 CAAN (HIV (CAAN)); test: single-point ELISA at EC50 conc. of A-1

Binder	ELISA A450 (BSA)	ELISA A450 (gp120 SHIV SF162 P3)	ELISA A450 (gp120 Bal)	ELISA A450 (gp120 CAAN)
B1	0.06 A450	0.61 A450	0.9 A450	0.77 A450
B2	0.06 A450	0.5 A450	0.89 A450	0.59 A450
B3	0.06 A450	0.42 A450	0.88 A450	0.67 A450
B4	0.06 A450	0.56 A450	0.94 A450	0.77 A450
B5	0.06 A450	0.16 A450	0.89 A450	0.36 A450
B6	0.07 A450	0.71 A450	1.03 A450	0.81 A450
B7	0.06 A450	0.82 A450	1.1 A450	1.04 A450
B8	0.07 A450	0.68 A450	1.05 A450	0.99 A450
B9	0.06 A450	0.78 A450	1.03 A450	0.87 A450
B10	0.06 A450	0.58 A450	1 A450	0.85 A450
B11	0.06 A450	0.65 A450	0.9 A450	0.91 A450
B12	0.07 A450	0.18 A450	0.96 A450	0.5 A450
B13	0.06 A450	0.58 A450	0.96 A450	1.01 A450
B14	0.07 A450	0.15 A450	1.01 A450	0.43 A450
B15	0.06 A450	0.97 A450	0.91 A450	0.8 A450
B16	0.07 A450	0.8 A450	0.84 A450	0.87 A450
B17	0.06 A450	0.7 A450	0.89 A450	0.88 A450
B18	0.08 A450	1.29 A450	1.03 A450	1 A450
B19	0.06 A450	1.01 A450	0.95 A450	0.93 A450
